The values below come from patent US20100183640A1.

This test deals with purified human fibronectin (hFn), from human plasma (human) (UniProt P02751). Kind of test: cell-based or functional assay.

B1: recombinant human uteroglobin (ligand)
chain: EICPSFQRVIETLLMDTPSSYEAAMELFSPDQDMREAGAQLKKLVDTLPQKPRESIIKLMEKIAQSSLCN
For B1, the % Inhibition of adhesion of NIH-3T3 cells to hFn-coated wells (50 ng rhUG) worked out at 54%; the Percent Inhibition of cellular adhesion to fibronectin, Hela cell line (50 ng) was -5%; the Percent Inhibition of cellular adhesion to fibronectin, NIH-3T3 cell line (50 ng) was 54%.
